According to patent US20220267427A1 (SYSMEX, published 2022):

Tests used:
[1] = biological target: T1, fCK18 in apoptosis-induced HepG2 cell culture supernatant (human, UniProt P05783 239-397); assay: plate ELISA with K18-624 magnetic microbeads, K18-328Fab-ALP detector; fCK18 0.74 ng/mL
T1 construct: Natural CK18 fragment from the culture supernatant of apoptosis-induced HepG2 cells (band around 18 KDa); also called fCK18 in apoptosis-inducing cells
T1 sequence: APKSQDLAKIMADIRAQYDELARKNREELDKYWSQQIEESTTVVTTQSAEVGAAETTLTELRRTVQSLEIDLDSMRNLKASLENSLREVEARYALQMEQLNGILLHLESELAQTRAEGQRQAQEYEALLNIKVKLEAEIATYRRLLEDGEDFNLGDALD
Procedure: (§1) Measurement samples of 3-fold dilution series (3-fold to 6561-fold dilution) were prepared from the apoptosis-induced HepG2 cell culture supernatant with a diluent (TBS, pH 7.5, 2% BSA), and fCK18 was measured. […] Based on the prepared calibration curve, fCK18 in the measurement sample was measured.
(§2) This solution was added to an ELISA plate at 25 μL/well, then each measurement sample was added at 25 μL/well, and the plate was incubated (1500 rpm, RT, 20 min). […] (3) After washing the plate, the HISCL (registered trademark) R4 reagent was added thereto at 50 μL/well, and then the mixture was stirred (1500 rpm, RT, 1 min). Thereafter, the HISCL (registered trademark) R5 reagent was added at 100 μL/well, and then the mixture was stirred (1000 rpm, RT, 10 sec). (4) Luminescence intensity was measured with a plate reader.

[2] = biological target: T1, fCK18 in apoptosis-induced HepG2 cell …; assay: plate ELISA with K18-624 magnetic microbeads, K18-328Fab-ALP detector; fCK18 0.09 ng/mL
Procedure: as §1, §2

[3] = biological target: T1, fCK18 in apoptosis-induced HepG2 cell …; assay: plate ELISA with K18-624 magnetic microbeads, K18-328Fab-ALP detector
Procedure: as §1, §2

[4] = biological target: T1, fCK18 in apoptosis-induced HepG2 cell …; assay: HISCL sandwich immunoassay; K18-624 magnetic microbeads capture, K18-328Fab-ALP detector; fCK18 182.28 ng/mL
[5] = biological target: T1, fCK18 in apoptosis-induced HepG2 cell …; assay: plate ELISA with K18-624 magnetic microbeads, K18-328Fab-ALP detector; fCK18 20.27 ng/mL
Procedure: as §1, §2

[6] = biological target: T1, fCK18 in apoptosis-induced HepG2 cell …; assay: HISCL sandwich immunoassay; K18-624 magnetic microbeads capture, K18-328Fab-ALP detector; fCK18 6.79 ng/mL
Procedure: as §1, §2

[7] = biological target: T1, fCK18 in apoptosis-induced HepG2 cell …; assay: plate ELISA with K18-624 magnetic microbeads, K18-328Fab-ALP detector; fCK18 2.23 ng/mL
Procedure: as §1, §2

[8] = biological target: T2, rfCK18 (239-396) (human, UniProt P05783 239-396); assay: solid phase ELISA; antigen (0.3 ug/mL) captured by anti-GST or penta HIS antibody on plate, antibody 5 to 10 ng/mL
T2 construct: Bought (Cloud-Clone-Corp.); captured through an anti-GST or penta HIS antibody, the tag is not described
T2 sequence: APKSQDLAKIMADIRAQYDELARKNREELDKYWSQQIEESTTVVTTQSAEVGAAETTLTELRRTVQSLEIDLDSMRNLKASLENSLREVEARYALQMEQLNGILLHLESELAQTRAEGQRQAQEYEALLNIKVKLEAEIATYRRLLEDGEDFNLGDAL
Procedure: (§3) (1) An ANTI GST antibody or a penta HIS antibody was added to an ELISA plat at 2.5 μg/mL and 50 μL/well, and the plate was allowed to stand at 4° C. overnight to immobilize the antibody. Thereafter, the plate was washed three times with PBST, and Buffer I′ (10 mM NaH₂PO₄.2H₂O, 149.7 mM NaCl, 2.5 mM EDTA 2Na, 0.10% BSA, pH 7.0) was added thereto at 200 μL/well to prepare a plate stored at 4° C. overnight. […] (3) The plate was washed three times with PBST, and 50 μL each of each antigen diluent was added thereto, followed by shaking for 45 minutes. […] (6) The plate was washed three times with PBST, and 15000-fold diluted Peroxidase-conjugated Affinipure F(ab)′2 Fragment Goat Anti-Mouse IgG (H+L) (Jackson) was added thereto at 50 μL/well, followed by shaking for 45 minutes. (7) The plate was washed three times with PBST, TMB Mix (1-step Ultra TMB-ELISA (Thermo Scientific):3% H₂O₂: Phosphate-Citrate buffer (Sigma)=15:0.15:14.85) was added thereto at 100 μL/well, and the mixture was reacted at room temperature for 10 minutes. Thereafter, 1 M H₂SO₄ was added thereto at 100 μL/well to stop the reaction. (8) Absorbance of the reaction solution at 450 nm was measured with a plate reader.

[9] = biological target: T1, fCK18 in apoptosis-induced HepG2 cell …; assay: HISCL sandwich immunoassay; K18-624 magnetic microbeads capture, K18-328Fab-ALP detector; fCK18 0.28 ng/mL
[10] = biological target: T3, rfCK18 (127-430) (human, UniProt P05783 127-430); assay: solid phase ELISA; antigen (0.3 ug/mL) captured by anti-GST or penta HIS antibody on plate, antibody 5 to 10 ng/mL
T3 construct: Bought (Proteintech Inc.); captured through an anti-GST or penta HIS antibody, the tag is not described
T3 sequence: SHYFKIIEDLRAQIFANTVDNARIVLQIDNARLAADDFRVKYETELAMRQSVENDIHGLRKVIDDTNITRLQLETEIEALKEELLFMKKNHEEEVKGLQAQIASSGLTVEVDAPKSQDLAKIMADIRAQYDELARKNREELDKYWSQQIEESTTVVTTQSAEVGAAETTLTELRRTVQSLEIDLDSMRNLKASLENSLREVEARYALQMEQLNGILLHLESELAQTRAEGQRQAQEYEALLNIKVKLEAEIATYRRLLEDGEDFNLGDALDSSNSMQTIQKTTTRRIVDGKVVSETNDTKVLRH
Procedure: as §3

B1: K18-624 antibody (antibody, V domains shown)
VH: DVQLVESGGGLVQPGGSRKLSCAASGFTFSSFGMHWVRQAPEKGLEWVAYISSGSTTIYYADTVKGRFTISRDNPKNTLFLQMTSLRSEDTAMYYCARRGMITTGAWFAYWGQGTLVTVSA
VL: DILLTQSPAILSVSPGERVSFSCRASQRIGTSIHWYQQRTNGSPRLLIKYASESISGIPSRFSGSGSGTDFTLSINSVESEDIADYYCQQSYIWPFTFGSGTKLEIK
notes: Mouse monoclonal antibody from a hybridoma (Balb/C mouse immunised with Peptide 1-KLH)
B1 was tested, and the S/N ratio [1] was 16.1, the S/N ratio [2] was 2.7 and the “fCK18 concentration detectable (S/N ratio of 2 or more)” value [3] was no less than 0.09 ng/mL. For the same binder, the “fold detection sensitivity compared with Comparative Example 1 (M30 antibody)” value [3] was roughly 24 fold, the S/N ratio [4] was 2070 and the S/N ratio [5] was 525. For the same binder, the S/N ratio [6] was 75.7, the S/N ratio [7] was 47.3 and the Abs450 [8] was 0.017. The S/N ratio [9] was 3.8.

B2: K18-328 antibody (antibody, V domains shown)
VH: QVHLQQSAAELARPGASVKMSCKASGYTFTNYTIHWIKQRPGQGLEWIGYINPSSGYTDYNQNFKDKTTLTADKSSTTVYMQLSSLTSEDSAVYYCARQIPFAYWGQGTLVTVSA
VL: not shown
notes: Mouse monoclonal antibody from a hybridoma (immunogen full length rCK18)
In the case of B2, the Abs450 [10] is reported as 0.89 and the Abs450 [8] is reported as 0.525.
